The data set “SEC” deals with the molecule itself. As to the kind of experiment: SEC.
In data set [1] the target is rabbit muscle actin, polymerized (F-actin) (rabbit, UniProt P68135 1-377). As to the kind of experiment: co-sedimentation.

B1: NtWLIM2–His (recombinant tobacco LIM protein WLIM2, 6xHis-tagged) (natural protein, Nicotiana tabacum (tobacco), UniProt P93356 1-189, looked up)
chain: MSFIGTQQKCKACEKTVYPVELLSADGVNYHKSCFKCSHCKGTLKLSNFSSMEGVLYCKPHFEQLFKESGNFNKNFQSPAKSAEKLTPELTRSPSKAAGMFSGTQEKCATCGKTAYPLEKVTVENQSYHKTCFKCSHGGCSLSPSNYAALNGILYCKPHFSQLFKEKGSYNHLIKSASMKRPAATVPDS
B1: the “stoichiometry N” value in “SEC” turned out to be 2. The molecule further gave a dissociation constant (Kd) in data set [1] of 1.83 µM.

The values above are taken from paper PMC3603003 (Molecular Plant, 2012).
